Assay results taken from paper PMC5770238 (Science (New York, N.Y.), 2017).
Where two headings read alike, the source gives them in different places.

Tests used:
Test in all cases: fluorescence polarisation
[1] = biological target: T1, Hsp104 (S. cerevisiae AAA+ disaggregase), wild type (S. cerevisiae, UniProt P31539 1-908)
[2] = biological target: T2, Hsp104 T317A (sensor 1 ATPase mutant in NBD1) (S. cerevisiae, UniProt P31539 1-908, T317A)
[3] = biological target: T3, Hsp104 N728A (sensor 1 ATPase mutant in NBD2) (S. cerevisiae, UniProt P31539 1-908, N728A)
T3 sequence (P31539 whole entry N728A): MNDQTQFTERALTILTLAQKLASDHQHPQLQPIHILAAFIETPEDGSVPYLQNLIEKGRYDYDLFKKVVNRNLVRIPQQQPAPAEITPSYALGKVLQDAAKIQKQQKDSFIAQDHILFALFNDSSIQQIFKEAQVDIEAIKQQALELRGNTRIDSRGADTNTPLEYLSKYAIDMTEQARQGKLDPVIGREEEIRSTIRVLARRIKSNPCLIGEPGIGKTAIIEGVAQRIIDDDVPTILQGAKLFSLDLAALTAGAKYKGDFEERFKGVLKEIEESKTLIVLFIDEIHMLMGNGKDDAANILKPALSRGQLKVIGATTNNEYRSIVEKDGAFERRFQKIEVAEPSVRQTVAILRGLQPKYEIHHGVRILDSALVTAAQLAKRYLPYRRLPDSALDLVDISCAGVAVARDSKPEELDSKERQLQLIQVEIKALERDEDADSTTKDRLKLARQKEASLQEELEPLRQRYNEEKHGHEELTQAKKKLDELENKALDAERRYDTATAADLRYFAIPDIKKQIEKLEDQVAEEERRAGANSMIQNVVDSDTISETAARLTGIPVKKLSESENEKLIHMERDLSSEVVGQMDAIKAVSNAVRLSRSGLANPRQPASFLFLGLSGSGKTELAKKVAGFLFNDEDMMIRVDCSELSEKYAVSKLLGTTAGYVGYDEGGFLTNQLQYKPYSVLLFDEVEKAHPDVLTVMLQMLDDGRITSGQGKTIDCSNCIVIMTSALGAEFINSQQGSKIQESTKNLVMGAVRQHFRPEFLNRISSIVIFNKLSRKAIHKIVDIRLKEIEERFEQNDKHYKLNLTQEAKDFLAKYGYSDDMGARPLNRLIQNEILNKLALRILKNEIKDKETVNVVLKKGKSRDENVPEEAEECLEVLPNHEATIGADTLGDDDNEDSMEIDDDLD

[4] = biological target: T1, Hsp104 (S. cerevisiae AAA+ …); remark: listed apart in the source
[5] = biological target: T2, Hsp104 T317A (sensor 1 ATPase mutant in …); remark: listed apart in the source
[6] = biological target: T3, Hsp104 N728A (sensor 1 ATPase mutant in …); remark: listed apart in the source

T2 sequence (P31539 whole entry T317A): as the sequence (P31539 whole entry N728A) above, with T317A, A728N counted along it
T1 sequence (P31539 whole entry): as the sequence (P31539 whole entry N728A) above, with A728N counted along it

B1: FITC-labeled casein (natural protein)
chain: RPKHPIKHQGLPQEVLNENLLRFFVAPFPEVFGKEKVNELSKDIGSESTEDQAMEDIKQMEAESISSSEEIVPNSVEQKHIQKEDVPSERYLGYLEQLLRLKKYKVPQLEIVPNSAEERLHSMKEGIHAQQKEPMIGVNQELAYFYPELFRQFYQLDAYPSGAWYYVPLGTQYTDAPSFSDIPNPIGSENSEKTTMPLW
modifications: FITC label (site not stated)
A Kd [1] of about 20 nM, a Kd [2] of about 1400 nM and a Kd [3] of 16 to 20 nM were found for B1 in this work. For the same binder, the Kd [4] was over 2000 nM, the Kd [5] was over 2000 nM and the Kd [6] was about 33 nM.
